Test: NO reactivity
Format: biochemical
Protocol: NO reactivity is measured using purified proteins (H-NOX, polymeric H-NOX, Homo sapiens hemoglobin (Hs Hb) etc.) prepared at 2 μM in buffer A and NO prepared at 200 μM in Buffer A (Buffer A: 50 mM Hepes, pH 7.5, 50 mM NaCl). Data are acquired on a HI-TECH Scientific SF-61 stopped-flow spectrophotometer equipped with a Neslab RTE-100 constant-temperature bath set to 20° C. (TGK Scientific LTD., Bradford On Avon, United Kingdom). The protein is rapidly mixed with NO in a 1:1 ratio with an integration time of 0.00125 sec. The wavelengths of maximum change are fit to a single exponential using the software that is part of the spectrometer, essentially measuring the rate-limiting step of oxidation by NO. The end products of the reaction are ferric-NO for the HNOX proteins and ferric-aquo for Hs Hb.

B1: wild-type T. tengcongensis H-NOX: wild-type Thermoanaerobacter tengcongensis H-NOX protein, SEQ ID NO:2 (protein, listed as Thermoanaerobacter tengcongensis)
chain: MKGTIVGTWIKTLRDLYGNDVVDESLKSVGWEPDRVITPLEDIDDDEVRRIFAKVSEKTGKNVNEIWREVGRQNIKTFSEWFPSYFAGRRLVNFLMMMDEVHLQLTKMIKGATPPRLIAKPVAKDAIEMEYVSKRKMYDYFLGLIEGSSKFFKEEISVEEVERGEKDGFSRLKVRIKFKNPVFE
  NO reactivity: low

Reference: patent US20210260155A1, “H-NOX Proteins for Treating Cardiovascular and Pulmonary Conditions” (OMNIOX.INC., priority 2018, published 2021)
